Substitutions are numbered along the chain they refer to.
B1: VSTB63 (antibody, from a related filing, V domains shown)
VH: QVQLQESGPGLVKPSETLSLTCAVSGFSITSDFAWNWIRQPPGKGLEWIGYITYSGFTNYNPSLESRVTISVDTSKNQFSLKLSSVTAADTAVYYCARQEYGNYVWYFDVWGQGTLVTVSS
VL: DIVMTQTPLSLSVTPGQPASISCRASESVEYYGTSLLQWYLQKPGQPPQLLIYAASNVESGVPDRFSGSGSGTDFTLKISRVEAEDVGVYYCQQSRKVPWTFGQGTKLEIK
B2: VSTB54 (antibody, from a related filing, V domains shown)
VH: QVQLVQSGAEVKKPGASVKVSCKASGYNIKDTYMHWVRQAPGQGLEWMGRIDPTHGYVIYDPKFQGRVTMTRDTSTSTVYMELSSLRSEDTAVYYCARDRFDPYWFLDVWGQGTLVTVSS
VL: B1 VL with L37M, P47S, A54D, S56F

Target: human VISTA (V-domain Ig Suppressor of T cell Activation) (human) (UniProt Q9H7M9)
Experiment: Table 1 column 'Kd, M'; method not stated

Binder	Kd [nM]
B1	0.83
B2	0.0253
